Experimental data from PMC6534608, “Rational design of a hypoallergenic Phl p 7 variant for immunotherapy of polcalcin-sensitized patients” (Scientific Reports, 2019).
Blank lines part the entries; values can stand above or below the molecule they belong to.

Tests used:
[1] = target: recombinant Phl p 7 mutant (hypoallergenic variant, four calcium-coordinating residues replaced by alanine) (timothy grass); assay: SEC; size exclusion chromatography (Yarra SEC-X150) coupled to a UV detector (230 nm) and ICPMS; 10 mM Tris, 50 mM ammonium sulfate, pH 7.5; 30 °C; apparent molecular masses
[2] = target: the molecule itself; assay: as above

stoichiometry N [1]: 2
Molecule: recombinant Phl p 7 mutant (hypoallergenic variant, four calcium-coordinating residues replaced by alanine) (natural protein)

B1: recombinant wildtype Phl p 7 (timothy grass pollen polcalcin) (natural protein)
chain: ADDMERIFKRFDTNGDGKISLSELTDALRTLGSTSADEVQRMMAEIDTDGDGFIDFNEFISFCNANPGLMKDVAKVF
notes: codon-optimized synthetic gene in pET17b (NdeI/EcoRI); also called rPhl p 7 wildtype; Phl p 7 wildtype; source: E. coli BL21(DE3), purified (anion-exchange chromatography, HiTrap Q FF)
stoichiometry N [2]: 2
